T1: GFP-RTN20 (Arabidopsis reticulon 20) (Arabidopsis thaliana, UniProt A9X4U2 1-561)
T1 construct: Reticulon 20 (RTN20), Arabidopsis thaliana, locus At2g43420; FRET donor; the methods name Gateway vectors for N- or C-terminal GFP without saying which was used for each gene; also called RTNLB20; source: tobacco (Nicotiana tabacum) leaf epidermal cells, Agrobacterium-mediated transient expression, in living cells; not shown: GFP, N-terminal, kept
T1 sequence (looked up): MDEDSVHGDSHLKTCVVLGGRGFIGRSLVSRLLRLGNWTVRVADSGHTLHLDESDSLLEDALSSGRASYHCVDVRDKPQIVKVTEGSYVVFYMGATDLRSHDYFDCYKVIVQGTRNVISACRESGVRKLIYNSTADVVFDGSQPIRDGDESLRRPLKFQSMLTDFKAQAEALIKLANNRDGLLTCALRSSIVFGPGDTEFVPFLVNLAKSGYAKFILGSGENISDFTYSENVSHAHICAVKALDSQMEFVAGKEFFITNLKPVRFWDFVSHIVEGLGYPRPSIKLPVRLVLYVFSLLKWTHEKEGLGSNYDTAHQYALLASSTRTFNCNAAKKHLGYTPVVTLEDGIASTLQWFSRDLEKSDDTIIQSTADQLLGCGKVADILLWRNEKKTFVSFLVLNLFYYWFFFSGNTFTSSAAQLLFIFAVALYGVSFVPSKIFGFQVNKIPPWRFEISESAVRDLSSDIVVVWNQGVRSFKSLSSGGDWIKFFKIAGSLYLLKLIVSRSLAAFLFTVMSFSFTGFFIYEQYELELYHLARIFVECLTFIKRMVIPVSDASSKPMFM

B1: RTN19 fused to mRFP (Arabidopsis reticulon 19, 3BETAHSD/D2) (natural protein, Arabidopsis thaliana, UniProt Q67ZE1 1-564, looked up)
chain: MSPAATETERWCVVTGGRGFAARHLVEMLVRYEMFCVRIADLAPAIMLDPQEGNGVLDEGLRSGRVQYISADLRDKSQVVKAFQGAEVVFHMAAPDSSINNHQLQYSVNVQGTQNVIDACVDVGVKRLIYTSSPSVVFDGVHGILNGTESMAYPIKHNDSYSATKAEGEELIMKANGRNGLLTCCIRPSSIFGPGDRLLVPSLVAAARAGKSKFIIGDGNNLYDFTYVENVAHAHVCAERALASGGDVSTKAAGQAYFITNMEPIKFWEFMSQLLDGLGYERPSIKIPAFIMMPIAHLVELTYKVLGPYGMTVPQLTPSRVRLLSCSRTFDSTKAKDRLGYAPVVPLQEGIRRTIDSFSHLTAGSQSKREGPSKASRILGGGKVADTLLWKDLKQTLIAIFILISIYYNFVATGSTVVTALSKALLVASVFLFLHGILPEKIFGYTVEKIPASQFHLSKDSSHDLSLSVISSWNTTVKALRSLCQGNDWSFFFKVVFVLLALSLAGAISLHSIFVIGLPIAFLAFLVYEKKEQEIDSIVVSFKSFACKHKSDVYEKLFGSKKHD
notes: Reticulon 19 (RTN19, 3beta-hydroxysteroid dehydrogenase/C-4 decarboxylase isoform 2), Arabidopsis thaliana, locus At2g26260; FRET acceptor; also called RTNLB19; source: tobacco (Nicotiana tabacum) leaf epidermal cells, Agrobacterium-mediated transient expression, in living cells
B2: RTN3 fused to mRFP (Arabidopsis reticulon 3) (natural protein, Arabidopsis thaliana, UniProt Q9SH59 1-255, looked up)
chain: MAEEHKHEESIMEKISEKIHGHDDSSSSSSDSDDDKNSASLKTKIYRLFGREQPLHKLFGGGKPADIFLWRNKKVSGGVLGAATVSWILFELLEYNLLTLFGHISILALAVLFLWSSASTFIHKSPLHIPEVHIPEDVVLQLASGLRIEINRGFTVLRDIASGRDLKKFLLVIAGLWVLSKVGSSCNFLTLIYIATVLLFTIPVLYEKYEDKVDDFGEKAMREIKKQYVEFDVKVLSKVMSKIPKGAFAFIKKKD
notes: Reticulon 3 (RTN3), Arabidopsis thaliana, locus AT1G64090; FRET acceptor; also called RTNLB3; source: tobacco (Nicotiana tabacum) leaf epidermal cells, Agrobacterium-mediated transient expression, in living cells
B3: mRFP-RTN1 (Arabidopsis reticulon 1) (natural protein, Arabidopsis thaliana, UniProt Q9SUR3 1-275, looked up)
chain: MAEEHKHDESVIAPEPAVEVVERESLMDKISEKIHHGGDSSSSSSSSDDEDEKKKTKKPSSPSSSMKSKVYRLFGREQPVHKVLGGGKPADIFMWKNKKMSGGVLGGATAAWVVFELMEYHLLTLLCHVMIVVLAVLFLWSNATMFINKSPPKIPEVHIPEEPILQLASGLRIEINRGFSSLREIASGRDLKKFLIAIAGLWVLSILGGCFNFLTLAYIALVLLFTVPLAYDKYEDKVDPLGEKAMIELKKQYAVLDEKVLSKIPLGPLKNKKKD
notes: Reticulon 1 (RTN1), Arabidopsis thaliana, locus AT4G23630; FRET acceptor; also called RTNLB1; source: tobacco (Nicotiana tabacum) leaf epidermal cells, Agrobacterium-mediated transient expression, in living cells; not shown: mRFP, N-terminal, kept
B4: RTN2 fused to mRFP (Arabidopsis reticulon 2) (natural protein, Arabidopsis thaliana, UniProt Q9SUT9 1-271, looked up)
chain: MADEHKHEESSPNLDPAVEVVERESLMEKLSEKIHHKGDSSSSSSSDDENEKKSSSSSPKSLKSKVYRLFGRERPVHKVLGGGKPADIFMWKDKKMSGGVFGGATVAWVLFELMEYHLLTLLCHVMIVALAVLFLWSNATMFIHKSPPKIPEVHIPEEPLLQLASGLRIEINRGISSLREIASGRDIKKFLSAIAGLWVLSILGGCYSFLTLAYIALVLLFTVPLFYDKYEDKVDSYGEKAMAELKKQYAVLDAKVFSKIPRGPLKDKKKD
notes: Reticulon 2 (RTN2), Arabidopsis thaliana, locus AT4G11220; FRET acceptor; also called RTNLB2; source: tobacco (Nicotiana tabacum) leaf epidermal cells, Agrobacterium-mediated transient expression, in living cells

target: T1, GFP-RTN20 (Arabidopsis reticulon 20); assay: FRET or BRET; FRET-FLIM in living tobacco leaf epidermal cells; GFP-RTN20 as donor, mRFP fusions as acceptors, transiently co-expressed; two-photon excitation at 920 nm; lifetimes measured at the ER associated with the nuclear envelope; donor alone 2.4 ± 0.03 ns; conditions: partners not purified

Binder | GFP donor fluorescence lifetime (FRET-FLIM) [ns]
B1 | 2.2
B2 | 2.2
B3 | 2.21 ± 0.02
B4 | 2.2

Source: publication PMC5797236, “The odd one out: Arabidopsis reticulon 20 does not bend ER membranes but has a role in lipid regulation” (Scientific Reports, 2018)
